Assay results from patent US20210309984.

System: MUC5AC within type II porcine stomach mucin extract

Substance | immunoblot of MUC5AC degradation, in the presence of EDTA | immunoblot of MUC5AC degradation in type II mucin extract
ChiA C-domain (ChiA-CTD: residues 419-762), wild-type | no activity was detected | 
SsIE (residues 90-1520), E. coli strain W | no activity was detected | MUC5AC was processed into a different ˜60 kDa species
